Assay [1] addresses C. jejuni flagella (Campylobacter jejuni). Nature of the assay: apparent affinity estimated from ELISA dose response on immobilized Cj flagella.
Assay [2] shares this target. Nature of the assay: ELISA dose response, purified VHH on immobilized Cj flagella, rabbit anti-VHH detection.
Assay [3] deals with CmeC (Campylobacter jejuni). Nature of the assay: ELISA on directly coated CmeC (200 ng/well), serial dilution of purified VHH, anti-FLAG + anti-mouse-HRP, OPD, absorption at 490 nm.
Assay [4] deals with CadF (Campylobacter jejuni). Nature of the assay: ELISA on directly coated CadF (200 ng/well), serial dilution of purified VHH, rabbit anti-VHH + anti-rabbit-HRP, OPD, absorption at 490 nm.
Assay [5] addresses CfrA (Campylobacter jejuni). Nature of the assay: ELISA on directly coated CfrA (200 ng/well), serial dilution of purified VHH, anti-FLAG + anti-mouse-HRP, OPD, absorption at 490 nm.
For assay [6], the target named is CjaD (Campylobacter jejuni). Nature of the assay: ELISA on directly coated CjaD (200 ng/well), serial dilution of purified VHH, anti-FLAG + anti-mouse-HRP, OPD, absorption at 490 nm.
Assay [7] deals with CjaD (Campylobacter jejuni). Nature of the assay: apparent affinity from ELISA dose response, purified VHH on immobilized CjaD, anti-FLAG detection.

B1: Flagella-ECF-1D9 (VHH)
VHH: EVQLVESGGGLVEPGGSLRLSCATSGFAFDNYCMYWVRQAPGKGLEWISGITNSGSFSYYADSVKGRFTISRDNAKNTLFLEMNSLTVDDTAVYYCAIHGHGCTWDSLRTTSGPRYRGQGTQVTVSS
On to B1, for which the Kd in assay [1] is 9 nM. Besides, the Relative Bmax in assay [2] is 3.

B2: Flagella-ECF-1C4 (VHH)
VHH: EVQLVESGGGLVQAGGSLRVSCAASGRAVHNYALNWFRQAPGKAREFVSAISWTRRTYYANSVRGRFTISRDNNGNMVHLQMSNLKSEDTALYYCAAATTWPRLDGAEYWGQGTQVTVSS
B2: in assay [1], the Kd was 4 nM. In addition, in assay [2], the Relative Bmax came out at 3.

B3: Flagella-ECF-1B6 (VHH)
VHH: EVQLVESGGGLVQSGGSLRLSCAASGRIFSITNMGWYRQAPGEQRELVADMPSGGSTNYADSVKGRFTISRDIAKNTVYLQMNSLKPEDTAVYYCNLKMSQPGWLVTNHNFWGQGTQVTVSS
Consider B3, for which the Kd in assay [1] was 5 nM. The Relative Bmax in assay [2] was found to be 2.5.

B4: Flagella-ECF-1F4 (VHH)
VHH: EVQLVESGGGLVQPGGSLRLSCEAAGSILRVNSMGWYRQAPGKQRDLVSIITSNNDAKYSDSVRGRFTISRDNAKNTVYLQMSSLKPDDTAVYYCNAYVETAGWIPTTHNLWGQGTQVTVSS
As to B4, in assay [1], the Kd was 0.6 nM. The molecule also displayed a Relative Bmax in assay [2] of 2.5.

B5: CmeC-ECM-1C11 (VHH)
VHH: EVQLVESGGGLVQPGGSLRLSCAASGFTFSDQPMGWYRQAPGQGREWIAFISSGSGGTTDYKNSVKGRFTISRDNAKNIVYLQMNSLKPDDTARYYCNFRIDNNYWGQGTQVTVSS
On to B5, for which the EC50 (read off the curve) in assay [3] came out at 0.4 nM.

B6: CmeC-ECM-1D6 (VHH)
VHH: EVQLVESGGGLVQAGGSLRLSCAASGGTFSRYMMGWFRQAPGKEREFVASIARSGGTYFADSVKGRLTATRDDAKNTMHLQMNSLKPEDTAVYYCAAGAGGSYPALLDFEYLVWGQGTQVTVSS
Regarding B6, the concentration for a half-maximal effect (EC50 (read off the curve)) in assay [3] is 0.7 nM.

B7: CadF-ECF-1D10 (VHH, not shown: small tags and cut ends)
VHH: EVQLVESGGGLVQPGGSLRLSCAASGFTLDDYAVGWFRQAPGKEREWLSGISSRDGSTVYADSVKGRFTISRDNAKNTYYLQMNSLKPEDTAVYYCAAAVGYILTRVKSHYNDWSQGTQVTVSS
As for B7, the half-maximal effective concentration (EC50 (read off the curve)) in assay [4] came out at 0.7 nM.

B8: CadF-ECF-1F10 (VHH, not shown: small tags and cut ends)
VHH: EVQLVESGGGSVQAGGSLRLSCTASIRAGNRYAMGWFRQAPGKEREFVAGISWSGGNTYHADSVNGRFTISRDNAKNTLYLTMNSLKSEDTAVYYCAASWKPLTFRGDDYTYWGQGTQVTVSS
As for B8, the EC50 (read off the curve) in assay [4] came to 0.4 nM.

B9: CmeC-ECM-1G7 (VHH)
VHH: EVQLVESGGDLVQDGGSLRLSCAASGGDFRNPVTGWYRQAPGKQRELVGLITSDGRTNYGDSVMGRFTISMDTAKNTMYLQMNSLKPEDSAVYYCAASLLYGGLQFSTNIWGQGTQVTVSS
In the case of B9, the EC50 (read off the curve) in assay [3] came to 0.3 nM.

B10: Flagella-ECF-1G8 (VHH)
VHH: EVQLVESGGGLVEAGGSLTLSCTTSEPTSLLNLMGWWRQGPGKEREFVASSNWSGKLVDYADGVEGRFTVIRNEDENAISLQMNSLTVEDTAIYYCAASRLGLPRSAQANQYWGQGTQVTVSS
B10: the Kd in assay [1] is 7 nM. The Relative Bmax in assay [2] was 2.5.

B11: CfrA-ECA-1G7 (VHH, not shown: small tags and cut ends)
VHH: EVQLVESGGGLVQPGGSLRLSCTASGSSLDYYAIGWFRQAPGKEREGVSCISSRDGRIYWADSVEGRFTISRDNGKNTVYLQMNSLKPEDTAVYYCATSRWSFCPSDWSPVPSPFGSWGQGTQVTVSS
Take B11: in assay [5], the EC50 (read off the curve) was 9 nM.

B12: CjaD-ECD-1A7 (VHH, not shown: small tags and cut ends)
VHH: EVQLVESGGGLVQAGGSLRLSCATSGFTPGDYAIGWFRQAPGKAREGVSCLSTRDGTTYYADSVKGRFTISTDNAQNTVYLQMNSLKPEDTAVYYCAGEQISFRAVYYCTEYEPVYWSQGTQVTVSS
For the molecule B12, the EC50 (read off the curve) in assay [6] is 2 nM.

B13: CjaD-ECD-1D3 (VHH, not shown: small tags and cut ends)
VHH: EVQLVESGGGLVQTGGSLRLSCATSGFTFEYSAIAWFRQAPGKGREGVSCISNRDGTTVYADSVKGRFTISSDNAKNTVYLQMNSLTPEDTGVYYCAADAGVYTADYCRDSRYDPVSKDAWGKGTLVTVSS
In the case of B13, the Kd in assay [7] is 0.06 nM.
